The text below walks through data of paper PMC9365803, “Identification of a HTT-specific binding motif in DNAJB1 essential for suppression and disaggregation of HTT” (Nature Communications, 2022).

Series [1] deals with HTTExon1Q48.
Series [2] has as its target HTTExon1Q48. The source holds these as a separate data set.
Series [3] concerns the molecule itself. Description: FRET or BRET; fibrilization assay: equimolar GST-HTTExon1Q48-CyPet and GST-HTTExon1Q48-YPet, 0.75 µM in all; 30 mM HEPES pH 7.4, 150 mM NaCl, 5 mM MgCl2, 1 mM DTT, 5 mM ATP with regenerating system; without chaperones; FRET rises on aggregation. For orientation: Bioluminescence resonance energy transfer reports proximity on the nanometre scale.
For series [4], the target named is T1, DNAJB1^wt (human, UniProt P25685 1-340).
T1 construct: DNAJB1 (human Hsp40), class B J-domain protein; primers M1/S1 start at the start codon and the stop codon follows residue 340 (primers E, T1); also called wt DNAJB1; Hsp40; source: E. coli BL21-CodonPlus (DE3)-RIPL, purified (Ni-NTA; His-Smt3 tag cleaved with His-Ulp1); not shown: 6His-Smt3, N-terminal, cleaved
Description: cross-linking; XL-MS: HTTExon1Q23/48 incubated with Hsc70, DNAJB1 and Apg2 in the presence of ATP; 5–10 μM total protein, 0.5–1 mM SDA, 30 min at room temperature, UV photoactivation, SDS-PAGE, in-gel digestion with elastase, LC/MS. Conditions: both partners purified.

In series [5] the target is T1, DNAJB1^wt. In words: co-sedimentation; HTT fibril-binding assay: 2 µM HTTExon1Q48 aggregated 4.5 h at 20 °C; DNAJB1 variant added at 1 µM, 1 h at RT; sedimented at 20.000 rpm 30 min 4 °C; pellet analysed by Western blot. The note with it: both partners purified.

Read-outs that look alike come from different tables or passages of the source.

T1 sequence (P25685 whole entry): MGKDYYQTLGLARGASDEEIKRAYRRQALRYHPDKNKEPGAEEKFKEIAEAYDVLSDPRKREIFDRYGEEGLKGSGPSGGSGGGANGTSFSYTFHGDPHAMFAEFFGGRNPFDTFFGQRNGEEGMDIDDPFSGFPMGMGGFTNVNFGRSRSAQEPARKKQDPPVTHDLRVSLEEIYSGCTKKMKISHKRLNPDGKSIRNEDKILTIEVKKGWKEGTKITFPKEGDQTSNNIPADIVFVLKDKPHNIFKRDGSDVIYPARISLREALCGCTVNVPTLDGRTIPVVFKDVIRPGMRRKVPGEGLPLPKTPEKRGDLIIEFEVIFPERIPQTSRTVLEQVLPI

In the case of “DNAJB1^H244F (from UniProt P25685 1-340) (natural protein)”, the half-life (T1/2) of HTTExon1Q48 fibrilization, FRET assay, with Hsc70, Apg2 and ATP in series [1] is 10 h. On the same count and under the same terms, the value for “DNAJB1^H244Q (from UniProt P25685 1-340) (natural protein)” was 24 h; that for “DNAJB1^H244R (from UniProt P25685 1-340) (natural protein)” was 17 h. Molecule “DNAJB1^K242A (from UniProt P25685 1-340) (natural protein)” gave a half-life (T1/2) of HTTExon1Q48 fibrilization, FRET assay, with Hsc70, Apg2 and ATP in series [2] of 16 h.

B1: HTTExon1Q48ΔP2 (domain or fragment)
chain: MATLEKLMKAFESLKSFQQQQQQQQQQQQQQQQQQQQQQQQQQQQQQQQQQQQQQQQQQQQQQQQPPPPPPPPPPPQLPQPPPQAQPLLPQAAEEPLHRP
notes: Used soluble in the FRET assay and as fibrils in the disaggregation assay; also called HTTExon1Q48ΔP2-CyPet/YPet; source: E. coli BL21-CodonPlus (DE3)-RIPL, purified (glutathione sepharose); not shown: CyPet or YPet, C-terminal, kept
On to B1, for which the binding result in series [3] is on record as “binds”.

B2: HTTExon1Q48 (domain or fragment)
chain: MATLEKLMKAFESLKSFQQQQQQQQQQQQQQQQQQQQQQQQQQQQQQQQQQQQQQQQQQQQQQQQPPPPPPPPPPPQLPQPPPQAQPLLPQLQPPPPPPPPPPGPAAAEEPLHRP
notes: first exon of huntingtin with an expanded stretch of 48 glutamines; The XL-MS methods say only HTT; the only purification told is that of GST-HTTExon1Q48-CyPet/YPet (pGEX-6P1), so tags in the XL-MS sample are not certain; In the FRET assay two forms (CyPet and YPet) are mixed equimolar; also called GST-HTTExon1Q48-CyPet/YPet; HTTExon1Q48-CyPet/YPet; source: E. coli BL21-CodonPlus (DE3)-RIPL, …
For B2, the binding result in series [4] and in series [3] was “binds” throughout.

B3: HTTExon1Q48 fibrils (other)
chain: MATLEKLMKAFESLKSFQQQQQQQQQQQQQQQQQQQQQQQQQQQQQQQQQQQQQQQQQQQQQQQQPPPPPPPPPPPQLPQPPPQAQPLLPQLQPPPPPPPPPPGPAAAEEPLHRP
notes: first exon of huntingtin with 48 glutamines, as amyloid fibrils; Amyloid fibrils of many copies; also called HTT fibrils; preformed HTTExon1Q48 fibrils; not shown: GST, N-terminal, cleaved; CyPet, C-terminal, kept
With B3, the binding result in series [5] is “binds”.
